Laboratory results from US12358963B2, “Regenerative polypeptides and uses thereof” (Juvena Therapeutics, Inc., priority 2019, dated 2025).

Assays:
[1] = tested on: mouse myoblast cell lines; experiment: Myogenic gene RNA expression in mouse myoblasts by real-time qPCR; type: cell-based; conditions: 48h in fusion media
Protocol: Myogenic gene RNA expression (fold change to FM) in response to vehicle (FM) in mouse myoblast cell lines monitored by real-time qPCR. Myoblast were cultured 48h in fusion media. Mean±SD. n=3. (Y,Z) Differential induction of myogenic gene expression by FGF17 in human myoblast myoblasts. Quantitation table of myogenic gene RNA expression (fold change to FM-fusion media (DMEM+2% horse serum)) in response to FM or rh-FGF17 in aged human myoblast cell lines by real-time qPCR. Myoblast were cultured (B) 48 hours or (C) 72 hours in FM. Mean∓SD. n=3.
RNA was isolated from each well (RNeasy Mini Kit, Qiagen) and cDNA was obtained by reverse-transcription (High Capacity Reverse Transcription Kit, Thermo Fisher Scientific). Real-time quantitative PCR was performed using QuantStudio3 (Thermo Fisher).

human chondrocyte = experiment: Human chondrocyte proliferation (% EdU+); type: cell-based; conditions: 48h, vehicle 0.744
Protocol: Chondrocytes were cultured for 48h in the presence of FGF17 at indicated dose. FGF18 was added at 0.1 ug/mL as a positive control. Fresh media and FGF17 was added every 24h. Table of % EdU+ chondrocyte and p-values depicted. Mean∓S.D. (*p<0.05 by Tukey Honest Significant Difference T-test, n=2-3)

12 weeks old mice = experiment: Dexamethasone induced muscle atrophy, FGF17; type: in vivo, mouse; conditions: Dexamethasone 25 mg/kg i.p. 20 days; FGF17 0.5 mg/kg subcutaneous
Protocol: FIG. 17A) Experiment overview and groups. […] Muscle weight was assessed on Day 21. Forelimb grip strength and both limb grip strength were measured on Day 7, 13 and 21 FIG. 17B) TAs muscle weight over initial body weight shown as the percentage change from vehicle. ***p=0.0005, *p=0.0499. […] One way Anova corrected for multiple comparisons using Tukey method was used to compare data.
The experimental design is C57BL/6J male mice with daily administration of Vehicle, N=7; dexamethasone (25 mg/kg i.p.), N=6, or dexamethasone+treatment article, N=6, for 20 days. This design can be used to test any single factor identified and validated in in vitro assays or complex mixtures of 2 or more factors.
On day 21, animals are sacrificed, and animal weight recorded. 0.5 ml of blood is collected via cardiac puncture and processed to plasma for storage of plasma samples at −80° C. The animals are perfused with 1×PBS. After carefully dissecting the skin from the GA/TA muscles of each hind leg, photos are taken, followed by excision of exclusively the GA or TA muscle, weighing the muscles, then flash freezing in isopentane at −80 C.

human myoblast = experiment: Human myoblast proliferation (nuclei counts, EdU counts); type: cell-based; conditions: FGF17 0.1 ug/mL, 72h; FM 205
Protocol: FIG. 5A) Bar graph quantitation of % EdU+ mouse myoblast in response to BMP7. Myoblast were cultured 48h in the presence of BMP7 at indicated dose. Fresh media and BMP7 was added every 24h, followed by 2 hour EdU pulse and fixation. Mean∓S.D. Significant p-values (Vehicle˜BMP7 0.025 ug/mL: 1.21E-07, Vehicle˜BMP7 0.075 ug/mL: 8.05E-07, Vehicle˜BMP7 0.2255 ug/mL: 3.37E-03, Vehicle˜BMP7 0.9 ug/mL: 4.99E-02). FIG. 5B) Bar graph quantitation of % EdU+ human myoblast (person) in response to BMP7. Myoblast were cultured 72h in the presence of BMP7 at indicated dose. Cells were pulsed with EdU for 4 hours before fixation. Mean∓S.D. Significant p-values (Vehicle˜BMP7 1.56 ng/mL: 0.04). (*p<0.05 by Welch's One-Tailed T-test, n=2)
Bar graph of total EdU+ mouse myoblast cells compared per condition. Myoblast were cultured 48h in the presence of indicated factors. Fresh media and factors were added every 24h, followed by 2 hour EdU pulse and fixation. Mean∓Standard Deviation(SD) Table quantitation of EdU counts per field and p-values for mouse assay (*p<0.05 by Student's One-Tailed T-Test of increased activity, n=3-6, Synergy values <1 are evidence of effect). Bar graph of total EdU+ human myoblast cells per condition. Myoblast were cultured 72h in the presence of indicated factors, followed by 4 hour EdU pulse and fixation. Fresh media and factors were added every 24h. Mean∓Standard Deviation(SD). Table quantitation of +EdU counts and p-values for human assay. (*p<0.05 by Student's One-Tailed T-Test of increased activity, n=3-6, Synergy values <1 are evidence of effect)

B1: FGF17: FGF17 polypeptide, FGFR agonist (protein, listed as Homo sapiens)
chain: TQGENHPSPNFNQYVRDQGAMTDQLSRRQIREYQLYSRTSGKHVQVTGRRISATAEDGNKFAKLIVETDTFGSRVRIKGAESEKYICMNKRGKLIGKPSGKSKDCVFTEIVLENNYTAFQNARHEGWFMAFTRQGRPRQASRSRQNQREAHFIKRLYQGQLPFPNHAEKQKQFEFVGSAPTRRTKRTRRPQPLT
- Myf5 RNA expression (fold change to FM), Mean ([1]; FM 1.002): 1.376
- Myod1 RNA expression (fold change to FM), Mean ([1]; FM 1.002): 1.230
- Pax7 RNA expression (fold change to FM), Mean ([1]; FM 1.011): 6.118
- % EdU (human chondrocyte; 0.1 ug/mL): 4.675%
- % EdU (human chondrocyte; 0.20 ug/mL): 9.085%
- % EdU (human chondrocyte; 0.40 ug/mL): 16.773%
- Muscle atrophy (muscle weight, forelimb and both limb force) (12 weeks old mice): Protects Against Dexamethasone Induced Muscle Atrophy
- Ave. + EdU Counts (human myoblast): 349
